Measurements as given in IntAct's records for PubMed 21893288.

B1: Translocated intimin receptor Tir (Escherichia coli O157:H7), Q7DB77 (parent)
chain: MPIGNLGHNPNVNNSIPPAPPLPSQTDGAGGRGQLINSTGPLGSRALFTPVRNSMADSGDNRASDVPGLPVNPMRLAASEITLNDGFEVLHDHGPLDTLNRQIGSSVFRVETQEDGKHIAVGQRNGVETSVVLSDQEYARLQSIDPEGKDKFVFTGGRGGAGHAMVTVASDITEARQRILELLEPKGTGESKGAGESKGVGELRESNSGAENTTETQTSTSTSSLRSDPKLWLALGTVATGLIGLAATGIVQALALTPEPDSPTTTDPDAAASATETATRDQLTKEAFQNPDNQKVNIDELGNAIPSGVLKDDVVANIEEQAKAAGEEAKQQAIENNAQAQKKYDEQQAKRQEELKVSSGAGYGLSGALILGGGIGVAVTAALHRKNQPVEQTTTTTTTTTTTSARTVENKPANNTPAQGNVDTPGSEDTMESRRSSMASTSSTFFDTSSIGTVQNPYADVKTSLHDSQVPTSNSNTSVQNMGNTDSVVYSTIQHPPRDTTDNGARLLGNPSAGIQSTYARLALSGGLRHDMGGLTGGSNSAVNTSNNPPAPGSHRFV
B2: BAR/IMD domain-containing adapter protein 2 (Homo sapiens), Q9UQB8-4 (parent)
chain: MSLSRSEEMHRLTENVYKTIMEQFNPSLRNFIAMGKNYEKALAGVTYAAKGYFDALVKMGELASESQGSKELGDVLFQMAEVHRQIQNQLEEMLKSFHNELLTQLEQKVELDSRYLSAALKKYQTEQRSKGDALDKCQAELKKLRKKSQGSKNPQKYSDKELQYIDAISNKQGELENYVSDGYKTALTEERRRFCFLVEKQCAVAKNSAAYHSKGKELLAQKLPLWQQACADPSKIPERAVQLMQQVASNGATLPSALSASKSNLVISDPIPGAKPLPVPPELAPFVGRMSAQESTPIMNGVTGPDGEDYSPWADRKAAQPKSLSPPQSQSKLSDSYSNTLPVRKSVTPKNSYATTENKTLPRSSSMAAGLERNGRMRVKAIFSHAAGDNSTLLSFKEGDLITLLVPEARDGWHYGESEKTKMRGWFPFSYTRVLDSDGSDRLHMSLQQGKSSSTGNLLDKDDLAIPPPDYGAASRAFPAQTASGFKQRPYSVAVPAFSQGLDDYGARSMSSGSGTLVSTV

Experiments:
BAIAP2, Q9UQB8-4 = variants of: B1; details: with BAIAP2, Q9UQB8-4
tir_eco27 tir, B7UM99 [1] = variants of: B2; details: with tir_eco27 tir
tir_eco57 tir, Q7DB77 [2] = variants of: B2; details: with tir_eco57 tir
tir_eco27 tir, B7UM99 [3] = variants of: B2; details: with tir_eco27 tir; remark: listed apart in the source
tir_eco57 tir, Q7DB77 [4] = variants of: B2; details: with tir_eco57 tir; remark: listed apart in the source
tir_eco57 tir, Q7DB77 [5] = variants of: B2; details: with tir_eco57 tir; remark: listed apart in the source

Variant | effect of a mutation on the interaction (BAIAP2, Q9UQB8-4) | effect of a mutation on the interaction (tir_eco27 tir, B7UM99 [1]) | effect of a mutation on the interaction (tir_eco57 tir, Q7DB77 [2]) | effect of a mutation on the interaction (tir_eco27 tir, B7UM99 [3]) | effect of a mutation on the interaction (tir_eco57 tir, Q7DB77 [4]) | effect of a mutation on the interaction (tir_eco57 tir, Q7DB77 [5])
Y458F | disrupting interaction |  |  |  |  | 
R193S |  | disrupting interaction | disrupting interaction |  |  | 
K108A |  |  |  | disrupting interaction | disrupting interaction | 
K108A;R193S |  | disrupting interaction |  |  |  | disrupting interaction
K108A;F196A |  | disrupting interaction |  |  |  | disrupting interaction
F196A |  | decreasing interaction | decreasing interaction | disrupting interaction | disrupting interaction | 
L28E |  | disrupting interaction | disrupting interaction |  |  | 
